Test results published in US20090291890A1 (published 2009).
Values joined by “and” are separate entries in the source; they are usually repeats but may differ in a detail not shown here. Identical values can stand only once.

B1: A122N/G124S-FVIIa (enzyme)
chain: ANAFLEELRPGSLERECKEEQCSFEEAREIFKDAERTKLFWISYSDGDQCASSPCQNGGSCKDQLQSYICFCLPAFEGRNCETHKDDQLICVNENGGCEQYCSDHTGTKRSCRCHEGYSLLNDSVSCTPTVEYPCGKIPILEKRNASKPQGRIVGGKVCPKGECPWQVLLLVNGAQLCGGTLINTIWVVSAAHCFDKIKNWRNLIAVLGEHDLSEHDGDEQSRRVAQVIIPSTYVPGTTNHDIALLRLHQPVVLTDHVVPLCLPERTFSERTLAFVRFSLVSGWGQLLDRGATALELMVLNVPRLMTQDCLQQSRKVGDSPNITEYMFCAGYSDGSKDSCKGDSGGPHATHYRGTWYLTGIVSWGQGCATVGHFGVYTRVSQYIEWLQKLMRSEPRPGVLLRAPFP
B2: H373F-FVIIa (enzyme)
chain: ANAFLEELRPGSLERECKEEQCSFEEAREIFKDAERTKLFWISYSDGDQCASSPCQNGGSCKDQLQSYICFCLPAFEGRNCETHKDDQLICVNENGGCEQYCSDHTGTKRSCRCHEGYSLLADGVSCTPTVEYPCGKIPILEKRNASKPQGRIVGGKVCPKGECPWQVLLLVNGAQLCGGTLINTIWVVSAAHCFDKIKNWRNLIAVLGEHDLSEHDGDEQSRRVAQVIIPSTYVPGTTNHDIALLRLHQPVVLTDHVVPLCLPERTFSERTLAFVRFSLVSGWGQLLDRGATALELMVLNVPRLMTQDCLQQSRKVGDSPNITEYMFCAGYSDGSKDSCKGDSGGPHATHYRGTWYLTGIVSWGQGCATVGFFGVYTRVSQYIEWLQKLMRSEPRPGVLLRAPFP
B3: H257S-FVIIa (enzyme)
chain: ANAFLEELRPGSLERECKEEQCSFEEAREIFKDAERTKLFWISYSDGDQCASSPCQNGGSCKDQLQSYICFCLPAFEGRNCETHKDDQLICVNENGGCEQYCSDHTGTKRSCRCHEGYSLLADGVSCTPTVEYPCGKIPILEKRNASKPQGRIVGGKVCPKGECPWQVLLLVNGAQLCGGTLINTIWVVSAAHCFDKIKNWRNLIAVLGEHDLSEHDGDEQSRRVAQVIIPSTYVPGTTNHDIALLRLHQPVVLTDSVVPLCLPERTFSERTLAFVRFSLVSGWGQLLDRGATALELMVLNVPRLMTQDCLQQSRKVGDSPNITEYMFCAGYSDGSKDSCKGDSGGPHATHYRGTWYLTGIVSWGQGCATVGHFGVYTRVSQYIEWLQKLMRSEPRPGVLLRAPFP
B4: Q366V-FVIIa (enzyme)
chain: ANAFLEELRPGSLERECKEEQCSFEEAREIFKDAERTKLFWISYSDGDQCASSPCQNGGSCKDQLQSYICFCLPAFEGRNCETHKDDQLICVNENGGCEQYCSDHTGTKRSCRCHEGYSLLADGVSCTPTVEYPCGKIPILEKRNASKPQGRIVGGKVCPKGECPWQVLLLVNGAQLCGGTLINTIWVVSAAHCFDKIKNWRNLIAVLGEHDLSEHDGDEQSRRVAQVIIPSTYVPGTTNHDIALLRLHQPVVLTDHVVPLCLPERTFSERTLAFVRFSLVSGWGQLLDRGATALELMVLNVPRLMTQDCLQQSRKVGDSPNITEYMFCAGYSDGSKDSCKGDSGGPHATHYRGTWYLTGIVSWGVGCATVGHFGVYTRVSQYIEWLQKLMRSEPRPGVLLRAPFP
B5: Q286R/H257A-FVIIa (enzyme)
chain: ANAFLEELRPGSLERECKEEQCSFEEAREIFKDAERTKLFWISYSDGDQCASSPCQNGGSCKDQLQSYICFCLPAFEGRNCETHKDDQLICVNENGGCEQYCSDHTGTKRSCRCHEGYSLLADGVSCTPTVEYPCGKIPILEKRNASKPQGRIVGGKVCPKGECPWQVLLLVNGAQLCGGTLINTIWVVSAAHCFDKIKNWRNLIAVLGEHDLSEHDGDEQSRRVAQVIIPSTYVPGTTNHDIALLRLHQPVVLTDAVVPLCLPERTFSERTLAFVRFSLVSGWGRLLDRGATALELMVLNVPRLMTQDCLQQSRKVGDSPNITEYMFCAGYSDGSKDSCKGDSGGPHATHYRGTWYLTGIVSWGQGCATVGHFGVYTRVSQYIEWLQKLMRSEPRPGVLLRAPFP

Tests used:
[1] = target: Factor X (Homo sapiens (Human)) (UniProt P00742)
Mesyl-dFPR-ACC = target: T1, Mesyl-dFPR-ACC
T1 sequence (peptide, N-terminal mesyl; D-Phe at position 1 (dF); C-terminal ACC fluorophore): FPR

Molecule	kcat/KM (M^-1s^-1), TF-dependent assay [1]	kcat/KM, TF-independent assay [1]	Activity (µmol/sec/µmol), specific activity for mesyl-dFPR-ACC (µmol/sec/µmol) (Mesyl-dFPR-ACC)	kcat/KM, TF-dependent assay [1] [M⁻¹ s⁻¹]
S52A/S60A/S222A-FVIIa (enzyme)	3.91e+07 M⁻¹ s⁻¹	10.2 M⁻¹ s⁻¹ and 19.6 M⁻¹ s⁻¹	1.22	
Gla swapFIX/Q366V-FVIIa (enzyme)	9.11e+07 M⁻¹ s⁻¹	90 M⁻¹ s⁻¹	2.82	
{Gla swap FIX/Q44S}/Q286R/M298Q-FVIIa (enzyme)	1.98e+08 M⁻¹ s⁻¹	729 M⁻¹ s⁻¹	1.11	
Gla swap FIX/Q286R/M298Q-FVIIa (enzyme)	2.55e+08 M⁻¹ s⁻¹ and 2.3e+08 M⁻¹ s⁻¹	673 M⁻¹ s⁻¹ and 678 M⁻¹ s⁻¹	1.53	
Gla swap FIX/T128N/P129A/S222A/Q286R-FVIIa (enzyme)	1.47e+08 M⁻¹ s⁻¹ and 1.43e+08 M⁻¹ s⁻¹	15.5 M⁻¹ s⁻¹ and 21.3 M⁻¹ s⁻¹	0.53	
T128N/P129A/V158D/E296V/M298Q-FVIIa (enzyme)	2.01e+08 M⁻¹ s⁻¹	1380 M⁻¹ s⁻¹	3.26	
A122N/G124S/A175S/Q286R-FVIIa (enzyme)	4.11e+07 M⁻¹ s⁻¹	3 M⁻¹ s⁻¹	2.16	
S52A/S60A/Q286R-FVIIa (enzyme)	4.1e+07 M⁻¹ s⁻¹		0.44	
T128N/P129A/A175S/Q366V-FVIIa (enzyme)	3.38e+07 M⁻¹ s⁻¹	3.4 M⁻¹ s⁻¹	3.4	
A122N/G124S/A175S/S222A/H257A/Q286R/M298Q-FVIIa (enzyme)			1.99	8.4e+07
A122N/G124S/A175S/Q286R/M298Q-FVIIa (enzyme)			3.03	7.43e+07
T128N/P129A/Q286R/M298Q-FVIIa (enzyme)	1.86e+08 M⁻¹ s⁻¹ and 1.5e+08 M⁻¹ s⁻¹	81.6 M⁻¹ s⁻¹ and 212 M⁻¹ s⁻¹	1.8	
V158D/E296V/M298Q-FVIIa (enzyme)	1.81e+08 M⁻¹ s⁻¹ and 1.65e+08 M⁻¹ s⁻¹	1220 M⁻¹ s⁻¹ and 984 M⁻¹ s⁻¹	3.28	
Gla swap FIX/T128N/P129A/Q286R/M298Q-FVIIa (enzyme)	2.11e+08 M⁻¹ s⁻¹ and 1.99e+08 M⁻¹ s⁻¹		0.78	
T128N/P129A/A175S/S222A-FVIIa (enzyme)	1.72e+07 M⁻¹ s⁻¹	1.9 M⁻¹ s⁻¹	3.19	
A122N/G124S/A175S/Q286R/M298Q/H373F-FVIIa (enzyme)			2.71	8.39e+07
S52A/S60A/Q286R/M298Q-FVIIa (enzyme)	1.25e+08 M⁻¹ s⁻¹	217 M⁻¹ s⁻¹	1.08	
Gla swap FIX/S222A/Q286R/M298Q/H373F-FVIIa (enzyme)	2.84e+08 M⁻¹ s⁻¹	192 M⁻¹ s⁻¹	1.92	
Gla swap FIX/S52A/S60A/S222A/Q286R-FVIIa (enzyme)	7.24e+07 M⁻¹ s⁻¹	2.9 M⁻¹ s⁻¹	0.44	
Gla swap FIX/T239I/Q286R/M298Q-FVIIa (enzyme)	1.25e+08 M⁻¹ s⁻¹	244 M⁻¹ s⁻¹	0.67	
GlaSwapFIX/S222A/T239I/Q286R-FVIIa (enzyme)	6.77e+07 M⁻¹ s⁻¹		0.25	
S52A/S60A/S222A/H257A/Q286R/M298Q-FVIIa (enzyme)	2.49e+08 M⁻¹ s⁻¹	116 M⁻¹ s⁻¹	0.98	
T128N/P129A/Q286R-FVIIa (enzyme)	8.45e+07 M⁻¹ s⁻¹ and 6.2e+07 M⁻¹ s⁻¹	8.7 M⁻¹ s⁻¹ and 10.5 M⁻¹ s⁻¹	1.21	
Gla swap FIX/Q286R/S222A/H257S-FVIIa (enzyme)	8.53e+07 M⁻¹ s⁻¹		0.49	
B1	3.87e+07 M⁻¹ s⁻¹	3.4 M⁻¹ s⁻¹	2.24	
B2	5.58e+07 M⁻¹ s⁻¹		1.17	
B3	1.18e+08 M⁻¹ s⁻¹	3.1 M⁻¹ s⁻¹	2.64	
B4	5.48e+07 M⁻¹ s⁻¹	4.3 M⁻¹ s⁻¹	9.29	
B5		4.3 M⁻¹ s⁻¹ and 2.5 M⁻¹ s⁻¹	1.96	
